Values of other authors as cited in publication PMC3409362.
pKd: −log10 of the molar value. Read-outs that look alike come from different tables or passages of the source.

Tests used:
[1] = molecular target: F-actin (Oryctolagus cuniculus) (UniProt P68135)
[2] = molecular target: F-actin (Oryctolagus cuniculus) (UniProt P68135); remark: listed apart in the source

pKd [1]	pKd [2]	Substance
6.82	–	V-ATPase B1 subunit (from UniProt P15313)
–	6.82	V-ATPase B2 subunit (from UniProt P21281)
